In the supplement of paper PMC5998384:

How the values were obtained:
HeLa Kyoto [1] = assay: solubility in G1/S (NP-40 vs SDS abundance) (log2 ratio); higher = more soluble; conditions: cell cycle stage: G1/S
HeLa Kyoto [2] = assay: melting temperature (median over replicates), in situ; higher = more thermally stable
HeLa Kyoto [3] = assay: solubility change mitosis vs G1/S (difference of NP-40 vs SDS log2 ratios) (log2 ratio difference); higher = more soluble in mitosis
HeLa Kyoto [4] = assay: thermal stability score vs G1/S (z-score of summed log2 fold changes over temperatures); higher = more thermally stable than in G1/S
[5] = cell cycle stage: early G1 (4.5 h after nocodazole release)
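Throughout, for melting temperature (median over replicates), in situ: HeLa Kyoto cells synchronized by double thymidine or nocodazole block, proteins quantified by TMT10plex mass spectrometry, three independent biological replicates.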
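Throughout, for solubility change mitosis vs G1/S (difference of NP-40 vs SDS log2 ratios): synchronized HeLa Kyoto cells (double thymidine block for G1/S, nocodazole release for mitosis), protein amounts in NP-40 versus SDS lysates quantified by mass spectrometry, three biological replicates.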
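Throughout, for solubility in G1/S (NP-40 vs SDS abundance): HeLa Kyoto cells arrested at G1/S by double thymidine block, proteins quantified by TMT10plex mass spectrometry in mild NP-40 versus SDS extracts, three biological replicates.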
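Throughout, for thermal stability score vs G1/S (z-score of summed log2 fold changes over temperatures): synchronized HeLa Kyoto cells, proteins quantified by TMT10plex mass spectrometry, three biological replicates, mitosis taken 0.5 h after nocodazole release, G1/S directly after double thymidine block.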

| Sequence | solubility in G1/S (log2) (HeLa Kyoto [1]) | melting temperature (HeLa Kyoto [2]; cell cycle stage: G1/S) [°C] | melting temperature (HeLa Kyoto [2]; cell cycle stage: mitosis) [°C] | solubility change mitosis (log2) (HeLa Kyoto [3]) | thermal stability score (HeLa Kyoto [4]; [5]) | thermal stability score (HeLa Kyoto [4]; cell cycle stage: mitosis) |
| --- | --- | --- | --- | --- | --- | --- |
| MEELSADEIRRRRLARLAGGQTSQPTTPLTSPQRENPPGPPIAASAPGPSQSLGLNVHNMTPATSPIGASGVAHRSQSSEGVSSLSSSPSNSLETQSQSLSRSQSMDIDGVSCEKSMSQVDVDSGIENMEVDENDRREKRSLSDKEPSSGPEVSEEQALQLVCKIFRVSWKDRDRDVIFLSSLSAQFKQNPKEVFSDFKDLIGQILMEVLMMSTQTRDENPFASLTATSQPIAAAARSPDRNLLLNTGSNPGTSPMFCSVASFGASSLSSLYESSPAPTPSFWSSVPVMGPSLASPSRAASQLAVPSTPLSPHSAASGTAAGSQPSSPRYRPYTVTHPWASSGVSILSSSPSPPALASSPQAVPASSSRQRPSSTGPPLPPASPSATSRRPSSLRISPSLGASGGASNWDSYSDHFTIETCKETDMLNYLIECFDRVGIEEKKAPKMCSQPAVSQLLSNIRSQCISHTALVLQGSLTQPRSLQQPSFLVPYMLCRNLPYGFIQELVRTTHQDEEVFKQIFIPILQGLALAAKECSLDSDYFKYPLMALGELCETKFGKTHPVCNLVASLRLWLPKSLSPGCGRELQRLSYLGAFFSFSVFAEDDVKVVEKYFSGPAITLENTRVVSQSLQHYLELGRQELFKILHSILLNGETREAALSYMAAVVNANMKKAQMQTDDRLVSTDGFMLNFLWVLQQLSTKIKLETVDPTYIFHPRCRITLPNDETRVNATMEDVNDWLTELYGDQPPFSEPKFPTECFFLTLHAHHLSILPSCRRYIRRLRAIRELNRTVEDLKNNESQWKDSPLATRHREMLKRCKTQLKKLVRCKACADAGLLDESFLRRCLNFYGLLIQLLLRILDPAYPDITLPLNSDVPKVFAALPEFYVEDVAEFLFFIVQYSPQALYEPCTQDIVMFLVVMLCNQNYIRNPYLVAKLVEVMFMTNPAVQPRTQKFFEMIENHPLSTKLLVPSLMKFYTDVEHTGATSEFYDKFTIRYHISTIFKSLWQNIAHHGTFMEEFNSGKQFVRYINMLINDTTFLLDESLESLKRIHEVQEEMKNKEQWDQLPRDQQQARQSQLAQDERVSRSYLALATETVDMFHILTKQVQKPFLRPELGPRLAAMLNFNLQQLCGPKCRDLKVENPEKYGFEPKKLLDQLTDIYLQLDCARFAKAIADDQRSYSKELFEEVISKMRKAGIKSTIAIEKFKLLAEKVEEIVAKNARAEIDYSDAPDEFRDPLMDTLMTDPVRLPSGTIMDRSIILRHLLNSPTDPFNRQTLTESMLEPVPELKEQIQAWMREKQNSDH [UBE4B] | -0.0721 | 51.3 | 51.8 | -0.0982 | 1.2 | 2.15 |
| MEESGYESVLCVKPDVHVYRIPPRATNRGYRAAEWQLDQPSWSGRLRITAKGQMAYIKLEDRTSGELFAQAPVDQFPGTAVESVTDSSRYFVIRIEDGNGRRAFIGIGFGDRGDAFDFNVALQDHFKWVKQQCEFAKQAQNPDQGPKLDLGFKEGQTIKLNIANMKKKEGAAGNPRVRPASTGGLSLLPPPPGGKTSTLIPPPGEQLAVGGSLVQPAVAPSSGGAPVPWPQPNPATADIWGDFTKSTGSTSSQTQPGTGWVQF [NECAP2] | 0.173 | 52.6 | 52 | -0.251 | -0.264 | -1.02 |
| MEFAAENEGKSGGGLHSVAEGVRLSPEPGREGVRDLAGAEEFGGGEEGTGLTGIKEIGDGEEGSGQRPEEIPMDLTVVKQEIIDWPGTEGRLAGQWVEQEVEDRPEVKDENAGVLEVKQETDSSLVVKEAKVGEPEVKEEKVKEEVMDWSEVKEEKDNLEIKQEEKFVGQCIKEELMHGECVKEEKDFLKKEIVDDTKVKEEPPINHPVGCKRKLAMSRCETCGTEEAKYRCPRCMRYSCSLPCVKKHKAELTCNGVRDKTAYISIQQFTEMNLLSDYRFLEDVARTADHISRDAFLKRPISNKYMYFMKNRARRQGINLKLLPNGFTKRKENSTFFDKKKQQFCWHVKLQFPQSQAEYIEKRVPDDKTINEILKPYIDPEKSDPVIRQRLKAYIRSQTGVQILMKIEYMQQNLVRYYELDPYKSLLDNLRNKVIIEYPTLHVVLKGSNNDMKVLHQVKSESTKNVGNEN [ZNHIT6] | 0.0397 | 48.4 | 50.2 | -0.116 | 1.3 | 2.06 |
| MEFSGRKWRKLRLAGDQRNASYPHCLQFYLQPPSENISLIEFENLAIDRVKLLKSVENLGVSYVKGTEQYQSKLESELRKLKFSYRENLEDEYEPRRRDHISHFILRLAYCQSEELRRWFIQQEMDLLRFRFSILPKDKIQDFLKDSQLQFEAISDEEKTLREQEIVASSPSLSGLKLGFESIYKIPFADALDLFRGRKVYLEDGFAYVPLKDIVAIILNEFRAKLSKALALTARSLPAVQSDERLQPLLNHLSHSYTGQDYSTQGNVGKISLDQIDLLSTKSFPPCMRQLHKALRENHHLRHGGRMQYGLFLKGIGLTLEQALQFWKQEFIKGKMDPDKFDKGYSYNIRHSFGKEGKRTDYTPFSCLKIILSNPPSQGDYHGCPFRHSDPELLKQKLQSYKISPGGISQILDLVKGTHYQVACQKYFEMIHNVDDCGFSLNHPNQFFCESQRILNGGKDIKKEPIQPETPQPKPSVQKTKDASSALASLNSSLEMDMEGLEDYFSEDS [PRIM2] | 0.23 | 48.9 | 49 | -0.116 | 0.648 | 2.05 |
| MEFYESAYFIVLIPSIVITVIFLFFWLFMKETLYDEVLAKQKREQKLIPTKTDKKKAEKKKNKKKEIQNGNLHESDSESVPRDFKLSDALAVEDDQVAPVPLNVVETSSSVRERKKKEKKQKPVLEEQVIKESDASKIPGKKVEPVPVTKQPTPPSEAAASKKKPGQKKSKNGSDDQDKKVETLMVPSKRQEALPLHQETKQESGSGKKKASSKKQKTENVFVDEPLIHATTYIPLMDNADSSPVVDKREVIDLLKPDQVEGIQKSGTKKLKTETDKENAEVKFKDFLLSLKTMMFSEDEALCVVDLLKEKSGVIQDALKKSSKGELTTLIHQLQEKDKLLAAVKEDAAATKDRCKQLTQEMMTEKERSNVVITRMKDRIGTLEKEHNVFQNKIHVSYQETQQMQMKFQQVREQMEAEIAHLKQENGILRDAVSNTTNQLESKQSAELNKLRQDYARLVNELTEKTGKLQQEEVQKKNAEQAATQLKVQLQEAERRWEEVQSYIRKRTAEHEAAQQDLQSKFVAKENEVQSLHSKLTDTLVSKQQLEQRLMQLMESEQKRVNKEESLQMQVQDILEQNEALKAQIQQFHSQIAAQTSASVLAEELHKVIAEKDKQIKQTEDSLASERDRLTSKEEELKDIQNMNFLLKAEVQKLQALANEQAAAAHELEKMQQSVYVKDDKIRLLEEQLQHEISNKMEEFKILNDQNKALKSEVQKLQTLVSEQPNKDVVEQMEKCIQEKDEKLKTVEELLETGLIQVATKEEELNAIRTENSSLTKEVQDLKAKQNDQVSFASLVEELKKVIHEKDGKIKSVEELLEAELLKVANKEKTVQDLKQEIKALKEEIGNVQLEKAQQLSITSKVQELQNLLKGKEEQMNTMKAVLEEKEKDLANTGKWLQDLQEENESLKAHVQEVAQHNLKEASSASQFEELEIVLKEKENELKRLEAMLKERESDLSSKTQLLQDVQDENKLFKSQIEQLKQQNYQQASSFPPHEELLKVISEREKEISGLWNELDSLKDAVEHQRKKNNDLREKNWEAMEALASTEKMLQDKVNKTSKERQQQVEAVELEAKEVLKKLFPKVSVPSNLSYGEWLHGFEKKAKECMAGTSGSEEVKVLEHKLKEADEMHTLLQLECEKYKSVLAETEGILQKLQRSVEQEENKWKVKVDESHKTIKQMQSSFTSSEQELERLRSENKDIENLRREREHLEMELEKAEMERSTYVTEVRELKDLLTELQKKLDDSYSEAVRQNEELNLLKAQLNETLTKLRTEQNERQKVAGDLHKAQQSLELIQSKIVKAAGDTTVIENSDVSPETESSEKETMSVSLNQTVTQLQQLLQAVNQQLTKEKEHYQVLE [KTN1] | 0.422 | 50 | 50.6 | 0.0644 | 5.06 | 7.49 |
| MEGAGENAPESSSSAPGSEESARDPQVPPPEEESGDCARSLEAVPKKLCGYLSKFGGKGPIRGWKSRWFFYDERKCQLYYSRTAQDANPLDSIDLSSAVFDCKADAEEGIFEIKTPSRVITLKAATKQAMLYWLQQLQMKRWEFHNSPPAPPATPDAALAGNGPVLHLELGQEEAELEEFLCPVKTPPGLVGVAAALQPFPALQNISLKHLGTEIQNTMHNIRGNKQAQGTGHEPPGEDSPQSGEPQREEQPLASDASTPGREPEDSPKPAPKPSLTISFAQKAKRQNNTFPFFSEGITRNRTAQEKVAALEQQVLMLTKELKSQKELVKILHKALEAAQQEKRASSAYLAAAEDKDRLELVRHKVRQIAELGRRVEALEQERESLAHTASLREQQVQELQQHVQLLMDKNHAKQQVICKLSEKVTQDFTHPPDQSPLRPDAANRDFLSQQGKIEHLKDDMEAYRTQNCFLNSEIHQVTKIWRKVAEKEKALLTKCAYLQARNCQVESKYLAGLRRLQEALGDEASECSELLRQLVQEALQWEAGEASSDSIELSPISKYDEYGFLTVPDYEVEDLKLLAKIQALESRSHHLLGLEAVDRPLRERWAALGDLVPSAELKQLLRAGVPREHRPRVWRWLVHLRVQHLHTPGCYQELLSRGQAREHPAARQIELDLNRTFPNNKHFTCPTSSFPDKLRRVLLAFSWQNPTIGYCQGLNRLAAIALLVLEEEESAFWCLVAIVETIMPADYYCNTLTASQVDQRVLQDLLSEKLPRLMAHLGQHHVDLSLVTFNWFLVVFADSLISNILLRVWDAFLYEGTKVVFRYALAIFKYNEKEILRLQNGLEIYQYLRFFTKTISNSRKLMNIAFNDMNPFRMKQLRQLRMVHRERLEAELRELEQLKAEYLERRASRRRAVSEGCASEDEVEGEA [TBC1D2] | -0.179 | 49.7 | 49.4 | -0.0396 | 1.39 | 0.724 |
| MEGGGGRDEPSACRAGDVNMDDPKKEDILLLADEKFDFDLSLSSSSANEDDEVFFGPFGHKERCIAASLELNNPVPEQPPLPTSESPFAWSPLAGEKFVEVYKEAHLLALHIESSSRNQAAQAAKPEDPRSQGVERFIQESKLKINLFEKEKEMKKSPTSLKRETYYLSDSPLLGPPVGEPRLLASSPALPSSGAQARLTRAPGPPHSAHALPRESCTAHAASQAATQRKPGTKLLLPRAASVRGRSIPGAAEKPKKEIPASPSRTKIPAEKESHRDVLPDKPAPGAVNVPAAGSHLGQGKRAIPVPNKLGLKKTLLKAPGSTSNLARKSSSGPVWSGASSACTSPAVGKAKSSEFASIPANSSRPLSNISKSGRMGPAMLRPALPAGPVGASSWQAKRVDVSELAAEQLTAPPSASPTQPQTPEGGGQWLNSSCAWSESSQLNKTRSIRRRDSCLNSKTKVMPTPTNQFKIPKFSIGDSPDSSTPKLSRAQRPQSCTSVGRVTVHSTPVRRSSGPAPQSLLSAWRVSALPTPASRRCSGLPPMTPKTMPRAVGSPLCVPARRRSSEPRKNSAMRTEPTRESNRKTDSRLVDVSPDRGSPPSRVPQALNFSPEESDSTFSKSTATEVAREEAKPGGDAAPSEALLVDIKLEPLAVTPDAASQPLIDLPLIDFCDTPEAHVAVGSESRPLIDLMTNTPDMNKNVAKPSPVVGQLIDLSSPLIQLSPEADKENVDSPLLKF [GTSE1] | 0.351 | 49 | 50.3 | 0.505 | 0.104 | -0.0609 |
| MEGGGGSGNKTTGGLAGFFGAGGAGYSHADLAGVPLTGMNPLSPYLNVDPRYLVQDTDEFILPTGANKTRGRFELAFFTIGGCCMTGAAFGAMNGLRLGLKETQNMAWSKPRNVQILNMVTRQGALWANTLGSLALLYSAFGVIIEKTRGAEDDLNTVAAGTMTGMLYKCTGGLRGIARGGLTGLTLTSLYALYNNWEHMKGSLLQQSL [TIMM23] | 0.455 | 57.3 | 55.6 | -0.145 | -1.18 | -2.03 |
| MEGGLGRAVCLLTGASRGFGRTLAPLLASLLSPGSVLVLSARNDEALRQLEAELGAERSGLRVVRVPADLGAEAGLQQLLGALRELPRPKGLQRLLLINNAGSLGDVSKGFVDLSDSTQVNNYWALNLTSMLCLTSSVLKAFPDSPGLNRTVVNISSLCALQPFKGWALYCAGKAARDMLFQVLALEEPNVRVLNYAPGPLDTDMQQLARETSVDPDMRKGLQELKAKGKLVDCKVSAQKLLSLLEKDEFKSGAHVDFYDK [SPR] | 0.0864 | 53.8 | 52.3 | -0.117 | -5.72 | -2.25 |
